We go through 78 sequences from the supplement of paper PMC7877785.

The data set in a line: self-splicing fitness, log relative to wild type (ln ratio); higher = more splicing; Tetrahymena group I intron in knt gene, E. coli kanamycin selection, DiMSum; sequences stand for … in CUCUCU…GGAGGGAAAAGUUAUCAGGCAUGCACCUGGUAGCUAGUCUUUAAACCAAUAGAUUGCAUCGGUUUAAAAGGCAAGACCGUCAAAUUGCGGGAAAGGGGUCAACAGCCGUUCAGUACCAAGUCUCAGGGGAAACUUUGAGAUGGCCUUGCAAAGGGUAUGGUAAUAAGCUGACGGACAUGGUCCUAACCACGCAGCCAAGUCCUAAGUCAACAGAUCUUCUGUUGAUAUGGAUGCAGUUCACAGACUAAAUGUCGGUCGGGGAAGAUGUAUUCUUCUCAUAAGAUAUAGUCGGACCUCUCCUUAAUGGGAGCUAGCGGAUGAAGUGAUGCAACACUGGAGCCGCUGGGAACUAAUUUGUAUGCGAAAGUAUAUUGAUUAGUUUUGGAGUACUCGUGGUCG
An outline of the steps:
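Six replicate transformations of E. coli BL21(DE3) with a pET-22b(+) library were grown overnight at 37°C or 30°C. The library randomised all eight P1ex-region intron nucleotides, the intron lying in the knt kanamycin-resistance gene, and plates were LB agar with or without 25 μg/mL kanamycin plus 100 μg/mL carbenicillin, 50 μM IPTG and 0.2% rhamnose. Pooled colonies were amplicon-sequenced on an Illumina HiSeq 2500, and fitness is the DiMSum error-weighted combination of wild-type-normalised replicate fold changes, kanamycin versus none.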

± gives the uncertainty stated by the source.

As for CUGAAGCAAUAUUACGCAGG, the “self-splicing fitness (ln)” value was -1.8 ± 0.082 (30 °C) and -1.77 ± 0.12 (37 °C).
The like results for GCUGAGCAAUAUUACGUUCA were, in that order, -3.45 ± 0.28 and -1.81 ± 0.2.
Turning to GCCUAGCAAUAUUACGCCCA, the “self-splicing fitness (ln)” value is -2.69 ± 0.25 (30 °C) and -0.792 ± 0.2 (37 °C).
In the same order, the values of AGUAAGCAAUAUUACGUCUG are -3.21 ± 0.17 and -1.49 ± 0.12.
In the same order, the values of CAGGAGCAAUAUUACGAUUA are -3.38 ± 0.31 and -2.37 ± 0.3.
The like results for AGCUAGCAAUAUUACGGCAU were, in that order, -0.602 ± 0.11 and -0.476 ± 0.14.
As for UCCCAGCAAUAUUACGUGGA, the “self-splicing fitness (ln)” value was -3.08 ± 0.14 (30 °C) and -1.95 ± 0.15 (37 °C).
In the same order, the values of UUCAAGCAAUAUUACGCGCA are -0.732 ± 0.13 and 0.264 ± 0.17.
The like results for UUUUAGCAAUAUUACGGACA were, in that order, -1.41 ± 0.18 and -0.668 ± 0.17.
Regarding CGAGAGCAAUAUUACGCGUG, the “self-splicing fitness (ln)” value (30 °C) was -1.48 ± 0.13 and the “self-splicing fitness (ln)” value (37 °C) was -2.95 ± 0.23.
The like results for ACCGAGCAAUAUUACGUACA were, in that order, -2.64 ± 0.27 and -2.04 ± 0.27.
Consider ACUGAGCAAUAUUACGCCGU, for which the “self-splicing fitness (ln)” value (37 °C) was -2.31 ± 0.4.
For CUAAAGCAAUAUUACGAGCA, the “self-splicing fitness (ln)” value is -3.41 ± 0.25 (30 °C) and -1.08 ± 0.2 (37 °C).
As to AGCAAGCAAUAUUACGUCAU, the “self-splicing fitness (ln)” value reads like this: (30 °C) -1.5 ± 0.078; (37 °C) -1.23 ± 0.084.
The like results for CAAAAGCAAUAUUACGAUAU were, in that order, -4.43 ± 0.25 and -2.23 ± 0.18.
In the same order, the values of CACAAGCAAUAUUACGUCAA are -3.14 ± 0.17 and -2.6 ± 0.2.
In the same order, the values of GAUGAGCAAUAUUACGCAAU are -4.35 ± 0.34 and -2.46 ± 0.19.
Take GUACAGCAAUAUUACGCUGC: the “self-splicing fitness (ln)” value is, setting by setting: (30 °C) -4.33 ± 0.26; (37 °C) -2.74 ± 0.3.
In the same order, the values of GAUAAGCAAUAUUACGACGC are 0.303 ± 0.055 and -0.0161 ± 0.063.
Regarding CUAUAGCAAUAUUACGACAA, the “self-splicing fitness (ln)” value is, setting by setting: (30 °C) -2.79 ± 0.5; (37 °C) -2.64 ± 0.44.
The like results for CCGUAGCAAUAUUACGUUGA were, in that order, -2.67 ± 0.33 and -3.13 ± 0.29.
As for CCGGAGCAAUAUUACGGCUC, the “self-splicing fitness (ln)” value (37 °C) is -2.08 ± 0.37.
In the case of AAAUAGCAAUAUUACGAAAC, the “self-splicing fitness (ln)” value is, setting by setting: (30 °C) -3.4 ± 0.27; (37 °C) -1.76 ± 0.18.
The like results for CUACAGCAAUAUUACGAAAC were, in that order, -3.35 ± 0.26 and -2.37 ± 0.39.
In the same order, the values of AUACAGCAAUAUUACGAAGA are -3.16 ± 0.2 and -2.04 ± 0.17.
Consider UAGAAGCAAUAUUACGCGCG, for which the “self-splicing fitness (ln)” value is -0.301 ± 0.12 (30 °C) and -0.204 ± 0.13 (37 °C).
In the same order, the values of CUUUAGCAAUAUUACGAGAC are -1.83 ± 0.36 and -2.9 ± 0.4.
In the same order, the values of UUAGAGCAAUAUUACGCCGG are -0.922 ± 0.19 and 0.69 ± 0.36.
In the same order, the values of GAUUAGCAAUAUUACGACGA are -1.23 ± 0.3 and -0.273 ± 0.2.
Consider UGAAAGCAAUAUUACGUGCG, for which the “self-splicing fitness (ln)” value by setting is: (30 °C) -0.35 ± 0.065; (37 °C) -0.395 ± 0.073.
The like results for GUAGAGCAAUAUUACGAUGC were, in that order, -0.0786 ± 0.15 and -0.434 ± 0.13.
With UAACAGCAAUAUUACGGGCC, the “self-splicing fitness (ln)” value is -3.47 ± 0.26 (30 °C) and -2.98 ± 0.26 (37 °C).
The like results for UGAAAGCAAUAUUACGUGUA were, in that order, -1.5 ± 0.091 and -1.08 ± 0.11.
Consider AAAAAGCAAUAUUACGCGGA, for which the “self-splicing fitness (ln)” value is -1.95 ± 0.11 (30 °C) and -0.504 ± 0.11 (37 °C).
The like results for ACGAAGCAAUAUUACGAUGA were, in that order, -1.88 ± 0.18 and -1.29 ± 0.17.
GUAGAGCAAUAUUACGAUCU: the “self-splicing fitness (ln)” value is, setting by setting: (30 °C) -0.617 ± 0.12; (37 °C) -0.114 ± 0.15.
The like results for GAAAAGCAAUAUUACGCUCU were, in that order, -2.07 ± 0.13 and -1.27 ± 0.13.
As to CCCUAGCAAUAUUACGUAGU, the “self-splicing fitness (ln)” value was -3.63 ± 0.18 (30 °C) and -2.51 ± 0.17 (37 °C).
On to UUCAAGCAAUAUUACGUUAA, for which the “self-splicing fitness (ln)” value (30 °C) was -1.59 ± 0.11 and the “self-splicing fitness (ln)” value (37 °C) was -1.47 ± 0.12.
The like results for CGUCAGCAAUAUUACGAAUG were, in that order, -0.494 ± 0.077 and -0.0535 ± 0.093.
With AGAAAGCAAUAUUACGUGUC, the “self-splicing fitness (ln)” value is -4.33 ± 0.31 (30 °C) and -1.67 ± 0.18 (37 °C).
Consider GGAGAGCAAUAUUACGAACC, for which the “self-splicing fitness (ln)” value (30 °C) was -2.16 ± 0.43.
Regarding CCCCAGCAAUAUUACGACCA, the “self-splicing fitness (ln)” value runs as follows: (30 °C) -2.81 ± 0.18; (37 °C) -1.43 ± 0.16.
Take CUGCAGCAAUAUUACGUUUU: the “self-splicing fitness (ln)” value is, setting by setting: (30 °C) -3.97 ± 0.19; (37 °C) -3.27 ± 0.21.
As to CUUUAGCAAUAUUACGAAUU, under “37 °C”, the “self-splicing fitness (ln)” value is -3.6 ± 0.46.
On to CUCUAGCAAUAUUACGGUUU, for which the “self-splicing fitness (ln)” value reads like this: (30 °C) -3.04 ± 0.41; (37 °C) -1.82 ± 0.29.
For CUCGAGCAAUAUUACGUGCC, the “self-splicing fitness (ln)” value (30 °C) was -3.35 ± 0.35.
With CAUCAGCAAUAUUACGAACU, the “self-splicing fitness (ln)” value is -3.37 ± 0.21 (30 °C) and -0.499 ± 0.17 (37 °C).
With GAUGAGCAAUAUUACGCACU, the “self-splicing fitness (ln)” value by setting is: (30 °C) -2.71 ± 0.22; (37 °C) -1.04 ± 0.2.
In the same order, the values of UUCAAGCAAUAUUACGAGAU are -3.07 ± 0.19 and -2.17 ± 0.18.
For UCCGAGCAAUAUUACGGCCG, the “self-splicing fitness (ln)” value (30 °C) was -4.07 ± 0.34.
Turning to CCACAGCAAUAUUACGUGAG, the “self-splicing fitness (ln)” value was -0.847 ± 0.051 (30 °C) and -0.739 ± 0.065 (37 °C).
Consider AAUCAGCAAUAUUACGGUAA, for which the “self-splicing fitness (ln)” value reads like this: (30 °C) 0.0235 ± 0.065; (37 °C) 0.0455 ± 0.063.
The like results for UUUAAGCAAUAUUACGCGCG were, in that order, 0.181 ± 0.12 and -0.26 ± 0.14.
Regarding AACCAGCAAUAUUACGCAAG, the “self-splicing fitness (ln)” value runs as follows: (30 °C) -2.54 ± 0.1; (37 °C) -1 ± 0.1.
For UCGAAGCAAUAUUACGUGUC, the “self-splicing fitness (ln)” value (37 °C) is -2.37 ± 0.37.
As to CCUAAGCAAUAUUACGUAGC, the “self-splicing fitness (ln)” value (30 °C) was -4.03 ± 0.34 and the “self-splicing fitness (ln)” value (37 °C) was -2.21 ± 0.23.
In the same order, the values of AGGAAGCAAUAUUACGAGCC are -2.25 ± 0.23 and -1.32 ± 0.27.
For GCGUAGCAAUAUUACGCUAG, the “self-splicing fitness (ln)” value (30 °C) is -2.9 ± 0.2 and the “self-splicing fitness (ln)” value (37 °C) was -2.54 ± 0.29.
Consider UAAUAGCAAUAUUACGGUGC, for which the “self-splicing fitness (ln)” value (37 °C) was -1.98 ± 0.36.
As for UGCUAGCAAUAUUACGGGAC, the “self-splicing fitness (ln)” value is -2.52 ± 0.2 (30 °C) and -1.92 ± 0.18 (37 °C).
The like results for UCCGAGCAAUAUUACGUGCU were, in that order, -3.32 ± 0.26 and -2.61 ± 0.29.
In the same order, the values of GCGAAGCAAUAUUACGGCAC are 0.112 ± 0.13 and 0.387 ± 0.17.
In the same order, the values of ACAUAGCAAUAUUACGCAAA are -3.29 ± 0.16 and -2.25 ± 0.14.
Consider UCGAAGCAAUAUUACGGCUG, for which the “self-splicing fitness (ln)” value reads like this: (30 °C) -1.98 ± 0.14; (37 °C) -0.494 ± 0.14.
For the sequence CUAUAGCAAUAUUACGGAAC, the “self-splicing fitness (ln)” value (37 °C) was -1.63 ± 0.49.
For the sequence GCAUAGCAAUAUUACGUCGA, the “self-splicing fitness (ln)” value (30 °C) was -1.63 ± 0.15 and the “self-splicing fitness (ln)” value (37 °C) was -0.979 ± 0.15.
The like results for CCGCAGCAAUAUUACGCGUG were, in that order, -2.75 ± 0.15 and -2.38 ± 0.17.
In the same order, the values of GCCCAGCAAUAUUACGGCUU are -1.29 ± 0.071 and -0.757 ± 0.093.
Regarding CUAGAGCAAUAUUACGUACG, the “self-splicing fitness (ln)” value by setting is: (30 °C) -0.818 ± 0.082; (37 °C) 0.268 ± 0.12.
Consider UUUCAGCAAUAUUACGGCGA, for which the “self-splicing fitness (ln)” value reads like this: (30 °C) -0.344 ± 0.093; (37 °C) 0.167 ± 0.13.
The like results for CGCCAGCAAUAUUACGCGAG were, in that order, -4.1 ± 0.18 and -2.97 ± 0.25.
In the same order, the values of UCGAAGCAAUAUUACGUGCG are -1.07 ± 0.086 and -0.299 ± 0.1.
The like results for AACUAGCAAUAUUACGAAUA were, in that order, -2.71 ± 0.2 and -1.6 ± 0.13.
For the sequence CACAAGCAAUAUUACGGGUC, the “self-splicing fitness (ln)” value was -3.43 ± 0.1 (30 °C) and -2.2 ± 0.12 (37 °C).
Regarding UAUGAGCAAUAUUACGUAUU, the “self-splicing fitness (ln)” value (37 °C) was -3.61 ± 0.35.
Take GACCAGCAAUAUUACGAGCG: the “self-splicing fitness (ln)” value (30 °C) was -2.08 ± 0.067 and the “self-splicing fitness (ln)” value (37 °C) is -0.434 ± 0.077.
The like results for GCUAAGCAAUAUUACGUGAU were, in that order, -1.18 ± 0.073 and -0.96 ± 0.11.
